# Experimental data from patent US20090131277A1 (PROSCAN RX PHARMA, published 2009).
# Target: T1, prostate-specific membrane antigen (PSMA) (human, UniProt Q04609 44-750, limits assumed, 125I-labelled in Examples 2 and 8 (site of iodination not stated); unlabelled in Examples 5 and 6)
# T1 construct: also called purified recombinant PSMA
# Test: competition radioligand binding: 1 nM 125I-PSMA on plate-coated mimetope (SEQ ID NO:24), with 0 or 10 uM of the soluble peptide as competitor
# Method: For a typical competition binding experiment, the mimetope is coated to a solid support such as a 96-well plate by allowing 100 ul of a 10 uM solution of the mimetope (SEQ ID NO:24) in water to dry in the wells. The wells are then washed with TBST and blocked with 3% casein in TBST to minimize non-specific binding. The wells are then incubated with 1 nM ¹²⁵I-PSMA at a specific activity of about 80 000 dpm/pmol, containing 0 or 10 uM of alanine-mimetope. The plate is incubated O/N at 4° C. then the wells are rapidly washed with TBST to remove the unbound ligand fraction, and then counted in a gamma counter. The radioactivity counted in each wells represents the bound fraction of the ligand. An alanine-mimetope that binds to PSMA will thus reduce the binding of ¹²⁵I-PSMA to the coated (SEQ ID NO:24).
# T1 sequence (Q04609 44-750 limits assumed): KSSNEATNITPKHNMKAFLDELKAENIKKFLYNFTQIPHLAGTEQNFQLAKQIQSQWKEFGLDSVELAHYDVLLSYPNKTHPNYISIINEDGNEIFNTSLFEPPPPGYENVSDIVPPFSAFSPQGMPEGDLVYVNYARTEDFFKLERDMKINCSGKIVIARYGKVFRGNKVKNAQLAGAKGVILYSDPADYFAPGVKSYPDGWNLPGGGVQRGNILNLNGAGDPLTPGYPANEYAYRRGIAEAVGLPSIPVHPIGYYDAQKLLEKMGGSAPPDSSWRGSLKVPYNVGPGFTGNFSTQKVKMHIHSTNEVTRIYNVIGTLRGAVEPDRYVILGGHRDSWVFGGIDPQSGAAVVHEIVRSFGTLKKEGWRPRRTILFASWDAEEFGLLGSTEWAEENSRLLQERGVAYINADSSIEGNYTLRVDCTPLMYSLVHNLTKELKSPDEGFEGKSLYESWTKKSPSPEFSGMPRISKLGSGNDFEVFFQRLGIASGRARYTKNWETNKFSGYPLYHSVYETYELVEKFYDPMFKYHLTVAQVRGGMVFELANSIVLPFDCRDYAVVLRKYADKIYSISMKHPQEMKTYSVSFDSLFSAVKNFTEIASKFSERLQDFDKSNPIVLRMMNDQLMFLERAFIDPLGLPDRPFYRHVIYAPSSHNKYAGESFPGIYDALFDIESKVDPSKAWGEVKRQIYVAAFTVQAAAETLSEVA
row,binding result,Binder
1,no binding (tested: 10 uM),KQSYNAIT [PS68]
2,no binding (tested: 10 uM),KQSYNFAT [PS69]
